The nature of data set [1]: folding stability dG unfold from trypsin proteolysis; higher = more stable. In a few lines:
(§1)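 K50 was inferred by Bayesian fitting of sequencing counts obtained after protease digestion of designed mini-proteins. Unfolding free energy was derived by comparison with a sequence-predicted unfolded-state K50 and a shared folded-state K50, for each protease or both combined. The mini-proteins were under 80 residues, had no cysteine, were carried in a PA-tagged cDNA display construct, and were kept only if AlphaFold2 dimer inter-PAE exceeded 15.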

The nature of data set [2]: folding stability dG unfold (combined trypsin and chymotrypsin); higher = more stable. The method in brief:
as §1

A short description of data set [3]: folding stability dG unfold from chymotrypsin proteolysis; higher = more stable. In a few lines:
as §1

± gives the half width of the 95% confidence interval.

For “SAGGSAGGEELAKRLKELFPNAKIVEIKYDKKTKKVTIKVELEPGMSEEQRERLRKLLEELLKKSAGGSAGG [r6_97_TrROS_Hall]”, the “folding stability dG unfold” value in data set [1] was found to be 3.13 ± 0.17 kcal/mol; in data set [2] it was 3.07 ± 0.15 kcal/mol; in data set [3] it was 2.85 ± 0.099 kcal/mol.

On to “SAGGSAGGEIKAKVPYEKYPKYYKVKVEIYDPNTKKKIEYEALFPKGTKISAEEIAKKIVKKIKSAGGSAGG [r6_233_TrMRF]”, for which the “folding stability dG unfold” value in data set [1] turned out to be 0.876 ± 0.086 kcal/mol; in data set [2], 1.26 ± 0.24 kcal/mol; in data set [3], 1.54 ± 0.085 kcal/mol.

For “SAGGSAGGEIPADAEIEEFEFGGKPYFLVRFPDGTAALYERKGDKWELIATVPVPPDSRIFFKGSAGGSAGG [r6_475_TrMRF]”, the “folding stability dG unfold” value was found to be 0.946 ± 0.037 kcal/mol in data set [1], 1.12 ± 0.041 kcal/mol in data set [2] and 1.19 ± 0.086 kcal/mol in data set [3].

“SAGGSAGGEIRERLRELIEQLPEEELVVRIRRNGEEVELTFRTREDLEAALEANPEAEIEIVRRSAGGSAGG [r6_421_TrROS_Hall]”: the “folding stability dG unfold” value was 2.02 ± 0.023 kcal/mol in data set [1], 3 ± 0.058 kcal/mol in data set [2] and 3.35 ± 0.037 kcal/mol in data set [3].

On to “SAGGSAGGEISFDPETGKLTILAPSSISPDAIKKAIEEAGIPFKITSVSYIPDPKTLKVEYEISSAGGSAGG [r6_395_TrMRF]”, for which the “folding stability dG unfold” value stood at 0.841 ± 0.025 kcal/mol in data set [1], 0.719 ± 0.19 kcal/mol in data set [2] and 0.249 ± 0.29 kcal/mol in data set [3].

As to “SAGGSAGGEKTTVLVRVELYLEDTEVVELPDFVFTDLTEEQVLEEVRKLGLPDNVKVEIIPLPASAGGSAGG [r6_88_TrMRF]”, the “folding stability dG unfold” value in data set [1] turned out to be 2.53 ± 0.073 kcal/mol; in data set [2], 2.47 ± 0.11 kcal/mol; in data set [3], 2.46 ± 0.11 kcal/mol.

For “SAGGSAGGELELELTVRLPNGLEVRIRARVKFDEETNEWTITEIEIEIRPLPPPPVLDKDGKLVSAGGSAGG [r6_506_TrROS_Hall]”, the “folding stability dG unfold” value was found to be 3.24 ± 0.19 kcal/mol in data set [1], 2.93 ± 0.47 kcal/mol in data set [2] and 3.04 ± 0.31 kcal/mol in data set [3].

In the case of “SAGGSAGGETITVKVKIKNEDGEEIEVEAEVTKNKDGSYTITIKNKETGETKVVPNATIEEVEPSAGGSAGG [r6_254_TrROS_Hall]”, the “folding stability dG unfold” value in data set [1] worked out at 1.59 ± 0.12 kcal/mol; in data set [2], 1.93 ± 0.18 kcal/mol; in data set [3] it was 2.19 ± 0.18 kcal/mol.

On to “SAGGSAGGGDLVVYRLEVRRFEPGTGRLVETRSRTVVVPKEDLPELLERIPPGYEVLRIEAFPESAGGSAGG [r6_776_TrMRF]”, for which the “folding stability dG unfold” value in data set [1] came out at 0.636 ± 0.067 kcal/mol; in data set [2], 0.494 ± 0.11 kcal/mol; in data set [3], 0.361 ± 0.16 kcal/mol.

Take “SAGGSAGGGFVTIEVEITEVVGKTKDEEGKPHPGDPNDPSGYVKLPPFPVKVPSSPEEYAALLSSAGGSAGG [r6_219_JUSTAS]”: the “folding stability dG unfold” value was 0.551 ± 0.076 kcal/mol in data set [1], 0.301 ± 0.16 kcal/mol in data set [2] and -0.31 ± 0.62 kcal/mol in data set [3].

On to “SAGGSAGGGIEEELRRVLPEDATVTIEEVPERPLLVVTVTFPERAETRTFTFSPESPEKLIEALSAGGSAGG [r6_612_JUSTAS]”, for which the “folding stability dG unfold” value stood at 0.82 ± 0.049 kcal/mol in data set [1], 0.679 ± 0.12 kcal/mol in data set [2] and 0.628 ± 0.12 kcal/mol in data set [3].

Take “SAGGSAGGGITAKEAAELLEKYLKEKGYDYEVKIEEVDPVNPTVKITVTFPDGSKLEITLPIVDSAGGSAGG [r6_617_TrMRF]”: the “folding stability dG unfold” value in data set [1] stood at 3.02 ± 0.16 kcal/mol; in data set [2], 3.09 ± 0.2 kcal/mol; in data set [3], 3.21 ± 0.34 kcal/mol.

For “SAGGSAGGGKVKVELEPLEDDSYRLRITVELPDGSKIEKPVILPSNVPPELSAEKVAEEILKKESAGGSAGG [r6_895_TrMRF]”, the “folding stability dG unfold” value in data set [1] was 0.378 ± 0.089 kcal/mol; in data set [2], 0.228 ± 0.24 kcal/mol; in data set [3], -0.117 ± 0.34 kcal/mol.

In the case of “SAGGSAGGGMGPASFYIVTVDPNNPNVTKVESLSPSVDISLYRKKPFPIKTFSASNIEKLLKELSAGGSAGG [r6_864_JUSTAS]”, the “folding stability dG unfold” value in data set [1] was 0.334 ± 0.12 kcal/mol; in data set [2] it was 0.619 ± 0.11 kcal/mol; in data set [3], 0.791 ± 0.18 kcal/mol.

As for “SAGGSAGGGMLNGLLEKLLLAEPVEVDPVTTTVTPSPNGTVTTTPVYSTADDSVLTETQTTPVASAGGSAGG [r6_326_JUSTAS]”, the “folding stability dG unfold” value in data set [1] was 0.341 ± 0.057 kcal/mol; in data set [2] it was -0.0634 ± 0.14 kcal/mol; in data set [3], -0.574 ± 0.19 kcal/mol.

“SAGGSAGGGMNATPKKIKVTITITDPSGNKTTVTREFDSEEEAEKFVKELLPPNRSYTVTYEPESAGGSAGG [r6_290_JUSTAS]”: the “folding stability dG unfold” value came to 2.94 ± 0.074 kcal/mol in data set [1], 2.56 ± 0.068 kcal/mol in data set [2] and 2.075 ± 0.017 kcal/mol in data set [3].

“SAGGSAGGGMSFTLTSEKKVPGVNVTLTTVTGPGVTITYDPATGKATVEFPDSVTTVPLSSITTSAGGSAGG [r6_512_JUSTAS]”: the “folding stability dG unfold” value stood at 0.573 ± 0.024 kcal/mol in data set [1], 0.597 ± 0.099 kcal/mol in data set [2] and 0.359 ± 0.16 kcal/mol in data set [3].

Consider “SAGGSAGGGMSLEAPIGEIEKPEGTDTVVITVYENGKWHTIPLPNFKNIKIEKDPNSDVVTILLSAGGSAGG [r6_806_JUSTAS]”, for which the entries for the “folding stability dG unfold” value in data set [1], in data set [2] and in data set [3] were 1.29 ± 0.1 kcal/mol, 1.52 ± 0.18 kcal/mol and 1.71 ± 0.13 kcal/mol, respectively.

These data come from the supplement of paper PMC12764529.
